The target in this experiment is FLAG-tagged TRAP150 (thyroid hormone receptor-associated protein of 150 kDa), full length (UniProt Q9Y2W1). In words: co-IP; anti-FLAG immunoprecipitation of FLAG-TRAP150 (full length or truncated) from lysate of transfected HEK293 cells (hypotonic buffer with 0.5% Triton X-100, brought to 150 mM NaCl); precipitates mock- or RNase A-treated; immunoblot of endogenous partners. On the technique in general: A western blot detects proteins with antibodies after separation by electrophoresis.
Chain of UniProt Q9Y2W1 (Q9Y2W1 2-955): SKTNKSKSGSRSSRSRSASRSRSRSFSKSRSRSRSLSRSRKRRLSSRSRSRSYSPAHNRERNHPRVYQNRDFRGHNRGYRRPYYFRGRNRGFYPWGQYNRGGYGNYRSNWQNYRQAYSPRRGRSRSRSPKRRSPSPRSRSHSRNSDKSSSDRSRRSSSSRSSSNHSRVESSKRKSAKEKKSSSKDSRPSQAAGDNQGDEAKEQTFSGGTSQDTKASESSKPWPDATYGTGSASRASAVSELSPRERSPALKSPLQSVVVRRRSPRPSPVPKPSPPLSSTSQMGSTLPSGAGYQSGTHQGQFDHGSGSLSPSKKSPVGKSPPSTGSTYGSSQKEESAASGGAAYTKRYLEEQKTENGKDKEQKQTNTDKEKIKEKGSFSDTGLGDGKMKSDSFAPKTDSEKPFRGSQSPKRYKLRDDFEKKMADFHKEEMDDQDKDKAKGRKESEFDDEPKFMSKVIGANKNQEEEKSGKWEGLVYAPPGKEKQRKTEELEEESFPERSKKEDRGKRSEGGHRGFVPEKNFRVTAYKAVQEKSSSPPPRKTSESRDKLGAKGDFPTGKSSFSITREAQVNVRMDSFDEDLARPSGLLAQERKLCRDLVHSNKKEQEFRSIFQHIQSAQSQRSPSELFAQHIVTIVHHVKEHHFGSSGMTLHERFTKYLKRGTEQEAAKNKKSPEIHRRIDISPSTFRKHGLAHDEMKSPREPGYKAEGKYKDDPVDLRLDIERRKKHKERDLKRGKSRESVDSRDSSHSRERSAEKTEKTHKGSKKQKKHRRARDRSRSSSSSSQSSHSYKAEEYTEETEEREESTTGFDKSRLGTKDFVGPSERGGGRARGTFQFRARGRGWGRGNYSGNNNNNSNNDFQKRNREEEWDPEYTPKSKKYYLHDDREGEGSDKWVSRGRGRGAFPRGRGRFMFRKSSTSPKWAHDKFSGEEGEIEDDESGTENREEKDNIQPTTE

B1: CPSF160 (natural protein)
chain: MYAVYKQAHPPTGLEFSMYCNFFNNSERNLVVAGTSQLYVYRLNRDAEALTKNDRSTEGKAHREKLELAASFSFFGNVMSMASVQLAGAKRDALLLSFKDAKLSVVEYDPGTHDLKTLSLHYFEEPELRDGFVQNVHTPRVRVDPDGRCAAMLVYGTRLVVLPFRRESLAEEHEGLVGEGQRSSFLPSYIIDVRALDEKLLNIIDLQFLHGYYEPTLLILFEPNQTWPGRVAVRQDTCSIVAISLNITQKVHPVIWSLTSLPFDCTQALAVPKPIGGVVVFAVNSLLYLNQSVPPYGVALNSLTTGTTAFPLRTQEGVRITLDCAQATFISYDKMVISLKGGEIYVLTLITDGMRSVRAFHFDKAAASVLTTSMVTMEPGYLFLGSRLGNSLLLKYTEKLQEPPASAVREAADKEEPPSKKKRVDATAGWSAAGKSVPQDEVDEIEVYGSEAQSGTQLATYSFEVCDSILNIGPCANAAVGEPAFLSEEFQNSPEPDLEIVVCSGHGKNGALSVLQKSIRPQVVTTFELPGCYDMWTVIAPVRKEEEDNPKGEGTEQEPSTTPEADDDGRRHGFLILSREDSTMILQTGQEIMELDTSGFATQGPTVFAGNIGDNRYIVQVSPLGIRLLEGVNQLHFIPVDLGAPIVQCAVADPYVVIMSAEGHVTMFLLKSDSYGGRHHRLALHKPPLHHQSKVITLCLYRDLSGMFTTESRLGGARDELGGRSGPEAEGLGSETSPTVDDEEEMLYGDSGSLFSPSKEEARRSSQPPADRDPAPFRAEPTHWCLLVRENGTMEIYQLPDWRLVFLVKNFPVGQRVLVDSSFGQPTTQGEARREEATRQGELPLVKEVLLVALGSRQSRPYLLVHVDQELLIYEAFPHDSQLGQGNLKVRFKKVPHNINFREKKPKPSKKKAEGGGAEEGAGARGRVARFRYFEDIYGYSGVFICGPSPHWLLVTGRGALRLHPMAIDGPVDSFAPFHNVNCPRGFLYFNRQGELRISVLPAYLSYDAPWPVRKIPLRCTAHYVAYHVESKVYAVATSTNTPCARIPRMTGEEKEFETIERDERYIHPQQEAFSIQLISPVSWEAIPNARIELQEWEHVTCMKTVSLRSEETVSGLKGYVAAGTCLMQGEEVTCRGRILIMDVIEVVPEPGQPLTKNKFKVLYEKEQKGPVTALCHCNGHLVSAIGQKIFLWSLRASELTGMAFIDTQLYIHQMISVKNFILAADVMKSISLLRYQEESKTLSLVSRDAKPLEVYSVDFMVDNAQLGFLVSDRDRNLMVYMYLPEAKESFGGMRLLRRADFHVGAHVNTFWRTPCRGATEGLSKKSVVWENKHITWFATLDGGIGLLLPMQEKTYRRLLMLQNALTTMLPHHAGLNPRAFRMLHVDRRTLQNAVRNVLDGELLNRYLYLSTMERSELAKKIGTTPDIILDDLLETDRVTAHF
B1: the percent of CPSF160 co-precipitated lay in the range of 10 to 20%.

The values above are taken from PMC4227790.
